Laboratory results reported in US11180770B2, “HPPD variants and methods of use” (BASF Agricultural Solutions Seed US LLC, priority 2017, dated 2021).

System: HPPD polypeptides
Assay: coupled HPPD activity assay: turnover and residual turnover in crude extracts
Type: biochemical, Pseudomonas fluorescens
Details: for Turnover: absence of Cmpd. 1, kinetic changes in absorbance (OD) at 320 nm, 30 min; for Turnover / Residual turnover: high substrate concentration; for Residual turnover: presence of 100 μM Cmpd. 1, changes in absorbance (OD) at 320 nm; for Residual turnover [%]: 100 μM Cmpd. 1, signal change with inhibitor divided by signal change without inhibitor
Description: The activity of HPPD polypeptides was determined in absence or presence of HPPD inhibitors using the coupled HPPD activity assay (FIG. 1).
For the determination of the residual activity, the apparent kinetic constant (kapp) of the determined substrate conversion was measured as kinetic changes in absorbance (OD) at 320 nm in a coupled assay, in that homogentisate (HGA) formed by HPPD from HPP is directly converted into the well absorbing molecule maleylacetoacetate (MAA) by a second enzyme homogentisate dioxygenase (HGD), applied in excess uniformly in all assays (see FIG. 1). The measurements were performed in 384 micro titer plates (Greiner Bio-One GmbH, Frickenhausen, Germany) by plate readers (Tecan infinite M1000 or M1000PRO, Tecan, Männedorf, Switzerland). The kcat/kM ratio of an enzymatic activity is proportional to the apparent kinetic constant kapp and is proportional to kcat/kM*[E] ([E]=enzyme concentration). […] As both kapp measurements in the presence and absence of inhibitor were performed by use of the identical enzyme sample, crude or purified, and thereby at the same enzyme concentration, the enzyme concentration eliminates from the calculation of residual activity and the ratio of both kapp directly indicates the change of kM due to the inhibition.
The assay solution used for determination of residual activities in raw HPPD polypeptide samples was composed by 200 mM sodium phosphate (Merck, Darmstadt, Germany, pH 7.0), 5 mM MgCl2 (Merck, Darmstadt, Germany), 20 mM ascorbate (Sigma-Aldrich, St. Louis, USA), 1 mM DTT (Sigma-Aldrich, St. Louis, USA), 0.1% Pluronic F-68 (Sigma-Aldrich, St. Louis, USA), 40 μM FeSO4 (Sigma-Aldrich, St. Louis, USA), about 8 mg/ml purified HGD and 500 μM HPP from a 1 M stock solution in DMSO (Sigma-Aldrich, St. Louis, USA) and equilibrated for 20 min on ice. For every HPPD polypeptide sample two assays were performed in quadruplets, whereby 5 μl of HPPD polypeptide sample were mixed firstly with 5 μl buffer (1×BugBuster®; (Merck, Darmstadt, Germany); in 140 mM Tris, pH 7.8, with 1:25000 diluted BNase®; Qiagen, Hilden, Germany)) or 5 μl inhibitor diluted in the same buffer from a 0.1 M stock solution in DMSO (200 μM resulting in 100 μM in the HPPD polypeptide/inhibitor sample) in the reference and inhibition assay, respectively, and subsequently with 10 μl assay solution. The change in absorbance at 320 nm was followed in 1 min intervals for 30 min. The kapp values were calculated as signal slope over time in the early phase of the kinetic reaction, usually for the first 5-10 minutes of the measurements. Additionally and according to the calculated residual activity, the total conversion, i.e. the absolute change in signal, in the 30 min timeframe was monitored as measure of turnover, and a residual turnover was calculated by dividing the change in signal in the presence of inhibitor by the change in signal in the reference sample without inhibitor.
Residual turnover were determined according to Example 3 by measuring total change in signal in the presence and absence of Cmpd. 1 (2-chloro-3-(methylsulfanyl)-N-(1-methyl-1H-tetrazol-5-yl)-4-(trifluoromethyl)benzamide). For each mutant HPPD polypeptide, the total change in signal without HPPD inhibitor herbicides served for normalization of the total change in signal in the presence of the herbicide.

B1: 2 (protein)
chain: MADLYENPMGLMGFEFIEFASPTPGTLEPIFEIMGFTKVATHRSKNVHLYRQGEINLILNNEPNSIASYFAAEHGPSVCGMAFRVKDSQKAYNRALELGAQPIHIDTGPMELNLPAIKGIGGAPLYLIDRFGEGSSIYDIDFVYLEGVERNPVGAGLKVIDHLTHNVYRGRMVYWANFYEKLFNFREARYFDIKGEYTGLTSKAMSAPDGMIRIPLNEESSKGAGQIEEFLMQFNGEGIQHVAFLTDDLVKTWDALKKIGMRFMTAPPDTYYEMLEGRLPDHGEPVDQLQARGILLDGSSVEGDKRLLLQIFSETLMGPVFFEFIQRKGDDGFGPWNFAQLFESIERDQVRRGVLTAD
modifications: mutant HPPD polypeptide
B1 was tested. Which Turnover did it give?
Its Turnover is 0.060.

What about the Residual turnover of the same molecule?
The Residual turnover was 0.026.

B2: 3 (protein)
chain: MADLYENPMGLMGFEFIEFASPTPGTLEPIFEIMGFTKVATHRSKNVHLYRQGEINLILNNEPNSIASYFAAEHGPSVCGMAFRVKDSQKAYNRALELGAQPIHIDTGPMELNLPAIKGIGGAPLYLIDRFGEGSSIYDIDFVYLEGVERNPVGAGLKVIDHLTHNVYRGRMVYWANFYEKLFNFREARYFDIKGEYTGLTSKAMSAPDGMIRIPLNEESSKGAGQIEEFLMQFNGEGIQHVAFLTDDLVKTWDALKKIGMRFMTAPADTYYEMLEGRLPDHGEPVDQLQARGILLDGSSVEGDKRLLLQIFSETLMGPVFFEFIQRKGDDGFGPDSFKVLFESIERDQVRRGVLTAD
modifications: mutant HPPD polypeptide
Which “Residual turnover [%]” value does the source give for B2 here?
The value was 64%.

What about the Turnover of the same molecule?
Its Turnover is 0.096.

And the Residual turnover?
Its Residual turnover is 0.061.

B3: 71 (protein)
chain: MADLYENPMGLMGFEFIEFASPTPGTLEPIFEIMGFTKVATHRSKNVHLYRQGEINLILNNEPNSIASYFAAEHGPSVCGMAFRVKDSQKAYNRALELGAQPIHIDTGPMELNLPAIKGIGGAPLYLIDRFGEGSSIYDIDFVYLEGVERNPVGAGLKVIDHLTHNVYRGRMVYWANFYEKLFNFREARYFDIKGEYTGLTSKAMSAPDGMIRILLNEESSKGAGQIEEFLMQFNGEGIQHVAFLTDDLVKTWDALKKIGMRFMTAPPDTYYEMLEGRLPDHGEPVDQLQARGILLDGSSVEGDKRLLLQIFSETLMGPVFFEFIQRKGDDGFGPFNFKELFESIERDQVRRGVLTAD
modifications: mutant HPPD polypeptide
Which results are given for B3?
Turnover: 0.044; Residual turnover: 0.022

B4: 69 (protein)
chain: MADLYENPMGLMGFEFIEFASPTPGTLEPIFEIMGFTKVATHRSKNVHLYRQGEINLILNNEPNSIASYFAAEHGPSVCGMAFRVKDSQKAYNRALELGAQPIHIDTGPMELNLPAIKGIGGAPLYLIDRFGEGSSIYDIDFVYLEGVERNPVGAGLKVIDHLTHNVYRGRMVYWANFYEKLFNFREARYFDIKGEYTGLTSKAMSAPDGMIRIPLNEESSKGAGQIEEFLMQFNGEGIQHVAFLTDDLVKTWDALKKIGMRFMTAPADSYYEMLEGRLPDHGEPVDQLQARGILLDGSSVEGDKRLLLQIFSERLMGPVFFEFIQRKGDDGFGPHSFKVLFEQMERDQVRRGVLTAD
modifications: mutant HPPD polypeptide
B4 was tested. Which “Residual turnover [%]” value did it give?
The value was 66%.

What about the Turnover of the same molecule?
The Turnover was 0.36.

And the Residual turnover?
Its Residual turnover is 0.237.

B5: 4 (protein)
chain: MADLYENPMGLMGFEFIEFASPTPGTLEPIFEIMGFTKVATHRSKNVHLYRQGEINLILNNEPNSIASYFAAEHGPSVCGMAFRVKDSQKAYNRALELGAQPIHIDTGPMELNLPAIKGIGGAPLYLIDRFGEGSSIYDIDFVYLEGVERNPVGAGLKVIDHLTHNVYRGRMVYWANFYEKLFNFREARYFDIKGEYTGLTSKAMSAPDGMIRIPLNEESSKGAGQIEEFLMQFNGEGIQHVAFLTDDLVKTWDALKKIGMRFMTAPGDTYYEMLEGRLPDHGEPVDQLQARGILLDGSSVEGDKRLLLQIFSETLMGPVFFEFIQRKGDDGFGPDSFKVLFESIERDQVRRGVLTAD
modifications: mutant HPPD polypeptide
Which results are given for B5?
Residual turnover [%]: 44%; Turnover: 0.126; Residual turnover: 0.055

B6: 66 (protein)
chain: MADLYENPMGLMGFEFIEFASPTPGTLEPIFEIMGFTKVATHRSKNVHLYRQGEINLILNNEPNSIASYFAAEHGPSVCGMAFRVKDSQKAYNRALELGAQPIHIDTGPMELNLPAIKGIGGAPLYLIDRFGEGSSIYDIDFVYLEGVERNPVGAGLKVIDHLTHNVYRGRMVYWANFYEKLFNFREARYFDIKGEYTGLTSKAMSAPDGMIKIPLNEESSKGAGQIEEFLMQFNGEGIQHVAFLTDDLVKTWDALKKIGMRFMTAPADSYYEMLEGRLPDHGEPVDQLQARGILLDGSSVEGDKRLLLQIFSETLMGPVFFEFIQRKGDDGFGPHSFKVLFEQMERDQVRRGVLTAD
modifications: mutant HPPD polypeptide
Which “Residual turnover [%]” value does the source give for B6 here?
The value was 56%.

What about the Turnover of the same molecule?
Its Turnover is 0.336.

What about the Residual turnover of the same molecule?
The Residual turnover was 0.187.

B7: 70 (protein)
chain: MADLYENPMGLMGFEFIEFASPTPGTLEPIFEIMGFTKVATHRSKNVHLYRQGEINLILNNEPNSIASYFAAEHGPSVCGMAFRVKDSQKAYNRALELGAQPIHIDTGPMELNLPAIKGIGGAPLYLIDRFGEGSSIYDIDFVYLEGVERNPVGAGLKVIDHLTHNVYRGRMVYWANFYEKLFNFREARYFDIKGEYTGLTSKAMSAPDGMIKIPLNEESSKGAGQIEEFLMQFNGEGIQHVAFLTDDLVKTWDALKKIGMRFMTAPADSYYEMLEGRLPDHGEPVDQLQARGILLDGSSVEGDKRLLLQIFSEQLMGPVFFEFIQRKGDDGFGPHSFKVLFEQMERDQVRRGVLTAD
modifications: mutant HPPD polypeptide
What does the source list for B7?
Residual turnover [%]: 71%; Turnover: 0.338; Residual turnover: 0.240

B8: 68 (protein)
chain: MADLYENPMGLMGFEFIEFASPTPGTLEPIFEIMGFTKVATHRSKNVHLYRQGEINLILNNEPNSIASYFAAEHGPSVCGMAFRVKDSQKAYNRALELGAQPIHIDTGPMELNLPAIKGIGGAPLYLIDRFGEGSSIYDIDFVYLEGVERNPVGAGLKVIDHLTHNVYRGRMVYWANFYEKLFNFREARYFDIKGEYTGLTSKAMSAPDGMIRIPLNEESSKGAGQIEEFLMQFNGEGIQHVAFLTDDLVKTWDALKKIGMRFMTAPADSYYEMLEGRLPDHGEPVDQLQARGILLDGSSVEGDKRLLLQIFSEQLMGPVFFEFIQRKGDDGFGPHSFKVLFEQMERDQVRRGVLTAD
modifications: mutant HPPD polypeptide
Which results are given for B8?
Residual turnover [%]: 64%; Turnover: 0.346; Residual turnover: 0.223

B9: 67 (protein)
chain: MADLYENPMGLMGFEFIEFASPTPGTLEPIFEIMGFTKVATHRSKNVHLYRQGEINLILNNEPNSIASYFAAEHGPSVCGMAFRVKDSQKAYNRALELGAQPIHIDTGPMELNLPAIKGIGGAPLYLIDRFGEGSSIYDIDFVYLEGVERNPVGAGLKVIDHLTHNVYRGRMVYWANFYEKLFNFREARYFDIKGEYTGLTSKAMSAPDGMIKIPLNEESSKGAGQIEEFLMQFNGEGIQHVAFLTDDLVKTWDALKKIGMRFMTAPADSYYEMLEGRLPDHGEPVDQLQARGILLDGSSVEGDKRLLLQIFSERLMGPVFFEFIQRKGDDGFGPHSFKVLFEQMERDQVRRGVLTAD
modifications: mutant HPPD polypeptide
With B9 as the molecule, how does the “Residual turnover [%]” value read?
The value was 64%.

And the Turnover?
Its Turnover is 0.335.

And the Residual turnover?
The Residual turnover was 0.215.
